Assay results taken from publication PMC4514675, “Novel Apo E-Derived ABCA1 Agonist Peptide (CS-6253) Promotes Reverse Cholesterol Transport and Induces Formation of preβ-1 HDL In Vitro” (PLoS ONE, 2015).

Assays:
[1] = tested on: BHK-ABCA1 plasma membrane microdomains; test: Desorption of phosphatidylcholine and sphingomyelin species from raft and non-raft domains of BHK-ABCA1 cells; format: cell-based, hamster; conditions: 0.96 μM, 12 h
Description: Lipid labeling was performed as described previously with minor modifications. Briefly, BHK-cells were labeled with either 5 μCi/ml ^3[H] choline (Perkin-Elmer) for 48 h or 3 μCi/ml ^3[H] cholesterol (Perkin-Elmer) for 24 h, and then stimulated as described above. Cells were subsequently incubated with lipid-free apoA-I or CS-6253 at (0.96 μM) for 12h, and fractionated by sucrose gradient in the presence of 0.2% Triton X-100. For each fraction, lipids were extracted by Folch and ^3[H]choline-labeled PtdCho, and SM were separated by TLC in the solvent system chloroform-methanol-water (65:35:4; v/v/v), and counted.
Fig 4 Apo A-I (left panels) and CS-6253 (right panels) desorb phospholipids species from raft and nonraft domains. […] After lipid extraction by Folch, ^3[H]phosphatidyl choline (^3[H]PC) (A and B), or ^3[H]sphingomyelin (^3[H]SM) (C and D) in each fraction was assessed for radioactivity. Radioactivity appearing in fractions corresponding to raft (1–5) and nonraft (6–10) material was pooled, and desorption of ^3[H]PC (A and B inset) and ^3[H]SM (C and D inset), from raft versus nonraft in the presence of apo A-I or CS-6253 was expressed as a percentage of control (100%, in the absence of acceptor). ^3[H]PC and ^3[H]SM distributions in sucrose gradient fractions after 12h incubation with apo A-I or CS-6253 were assessed by TLC respectively. […]

[2] = molecular target: T1, human ABCG1 (Homo sapiens, UniProt P45844); test: ABCG1-mediated cholesterol efflux from BHK-ABCG1 cells; format: cell-based
T1 construct: expressed in transfected cells; host or cells: BHK cells, stably transfected, induced with 10 nmol/l mifepristone
Description: Supplementary file pone.0131997.s009.tif: S8 Fig In-vitro time-dependent ABCG1-mediated cholesterol efflux activity to nHDL-CS-6253 particles generated by BHK cells expressing ABCA1. Unlabeled BHK cells expressing ABCA1 were treated with 0.96 μM lipid free apo A-I or CS-6253 for 18 h as described in experimental procedures in the online-only Supplementary appendix, S1 Appendix. Then the medium was collected and added to 3[H]cholesterol-labeled ABCG1 expressing cells in a time-dependent fashion (0–6h), and assayed for cholesterol efflux (only 6h time point is shown). (TIF) Click here for additional data file.
Supplementary file pone.0131997.s010.tif: S9 Fig In-vitro ABCG1-mediated cholesterol efflux activity to lipid free CS-6253 and nHDL-CS-6253 particles generated by BHK cells expressing ABCA1. Unlabeled ABCA1 expressing cells were treated with increasing concentrations of apo A-I or CS-6253 for 18 h. The medium from unlabeled ABCA1 cells treated as described in experimental procedures, centrifuged to remove cellular debris, added to ^3[H]cholesterol-BHK ABCG1 expressing cells for 6 h, and assayed for efflux as described in the online-only Supplementary appendix, S1 Appendix. Lipid free peptide and apo A-I are also tested against ABCG1 expressing cells for 6h cholesterol efflux. (We selected 1 μM nHDL mimetic or nHDL-apo A-I or lipid free peptide and apo A-I for the figure). […] Efflux of ^3[H]cholesterol is shown as means ± SD of triplicate experiments. (TIF) Click here for additional data file.
All cell culture incubations were performed at 37 °C in a humidified 5% CO2. Cells (J774, or BHK overexpressing human ABCG1) were labeled with 2 μCi/ml ^3H-free cholesterol (Perkin Elmer, Norwalk, Connecticut) for 24 h. Simultaneously J774 cells were incubated with 2 μg/ml ACAT inhibitor (Sandoz, Sigma, Oakville, Canada). Afterward, J774 and BHK-ABCG1 were stimulated with 0.5 mmol/l (cpt-cAMP) (2) or 10 nmol/l mifepristone for 18-20 h, respectively (1). Cells were incubated with various doses of acceptor in media for 6 h for J774 macrophages and BHK-ABCG1 cells. Media were collected, centrifuged at 3.000 g for 5min to remove cell debris, and counted for radioactivity. Cells were lysed in 0.5 ml of (0.1N) NaOH overnight with constant shaking. Further, 0.2 ml cells lysates were mixed with scintillation liquid and counted for radioactivity. Efflux from stimulated cells without acceptor was subtracted from total efflux to determine net efflux. Cholesterol efflux was calculated according to the following formula as the percentage of ^3H-cpm medium/(^3H-cpm medium + ^3H-cpm cells) x 100%. Efflux efficiency (Km) was calculated using the Michaelis-Menten equation (Graph-Pad Prism6 software) respectively (S1, S8 and S9 Figs.)

[3] = BHK-ABCG1, 6 h, mean ± SD, triplicate

Question: For apolipoprotein A-I [apo A-I], which “PC desorption in PM microdomains (in words)” value [1] is on record?
Answer: Its value is “less PC desorption in PM microdomains than CS-6253”.

Question: What about the SM desorption [1] of the same substance?
Answer: Its SM desorption is “desorbed from both non-raft and raft domains”.

Question: And the Km [2, 3]?
Answer: Its Km is 0.06 ± 0.01 µM.

Question: What about the “Km, ABCG1-mediated cholesterol efflux” value [2, 3] of the same substance?
Answer: The value was 1.7 ± 0.50 µg/mL.

Question: And the “Vmax, ABCG1-mediated cholesterol efflux” value ([2]; BHK-ABCG1, mean ± SD, triplicate)?
Answer: The value was 0.96 ± 0.01 % efflux/6h.

Question: And the “maximum net ABCG1 cholesterol efflux above base line” value ([2]; lipid free, BHK-ABCG1, 6 h)?
Answer: The value was 1%.
